Measured values taken from patent US20180208661A1 (CSL, published 2018).
Numbering of substitutions follows the chain as printed.

Experiments:
Experiment in all cases: affinity for IL-3Rα extracellular domain protein; method not stated
[1] = target: T1, human IL-3Rα extracellular domain P61A (human, UniProt P26951 19-305)
T1 sequence: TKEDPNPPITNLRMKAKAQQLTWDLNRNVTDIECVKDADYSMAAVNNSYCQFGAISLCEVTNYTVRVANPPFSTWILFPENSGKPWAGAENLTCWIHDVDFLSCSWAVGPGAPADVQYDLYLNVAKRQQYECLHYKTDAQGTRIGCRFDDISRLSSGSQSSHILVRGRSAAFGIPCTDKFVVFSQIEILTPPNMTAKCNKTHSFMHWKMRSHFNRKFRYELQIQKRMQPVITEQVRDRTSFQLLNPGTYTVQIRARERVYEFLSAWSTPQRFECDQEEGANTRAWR

[2] = target: T2, human IL-3Rα extracellular domain S59A (human, UniProt P26951 19-305)
T2 sequence: T1 sequence with S41A, A43P

[3] = target: T3, wild type human IL-3Rα extracellular domain (human, UniProt P26951 19-305)
T3 construct: also called huIL-3Rα WT; WT
T3 sequence: T1 sequence with A43P

[4] = target: T4, human IL-3Rα extracellular domain E51Q (human, UniProt P26951 19-305)
T4 sequence: T1 sequence with E33Q, A43P

[5] = target: T5, human IL-3Rα extracellular domain E51A (human, UniProt P26951 19-305)
T5 sequence: T1 sequence with E33A, A43P

[6] = target: T6, human IL-3Rα extracellular domain V53A (human, UniProt P26951 19-305)
T6 sequence: T1 sequence with V35A, A43P

[7] = target: T7, human IL-3Rα extracellular domain N232A (human, UniProt P26951 19-305)
T7 sequence: T1 sequence with A43P, N214A

[8] = target: T8, human IL-3Rα extracellular domain N232T (human, UniProt P26951 19-305)
T8 sequence: T1 sequence with A43P, N214T

[9] = target: T9, human IL-3Rα extracellular domain V277A (human, UniProt P26951 19-305)
T9 sequence: T1 sequence with A43P, V259A

[10] = target: T10, human IL-3Rα extracellular domain Y278F (human, UniProt P26951 19-305)
T10 sequence: T1 sequence with A43P, Y260F

[11] = target: T11, human IL-3Rα extracellular domain V277I (human, UniProt P26951 19-305)
T11 sequence: T1 sequence with A43P, V259I

Kd [1]: 176 nM
Kd [2]: 262 nM
Kd [3]: 125 nM
Kd [4]: 213 nM
Kd [5]: 207 nM
Kd [6]: 588 nM
Kd [7]: 2040 nM
Kd [8]: 358 nM
Kd [9]: 219 nM
Kd [10]: 1860 nM
Kd [11]: 33 nM
B1: human IL-3 (hIL-3) (ligand)
chain: APMTQTTPLKTSWVNCSNMIDEIITHLKQPPLPLLDFNNLNGEDQDILMENNLRRPNLEAFNRAVKSLQNASAIESILKNLLPCLPLATAAPTRHPIHIKDGDWNEFRRKLTFYLKTLENAQAQQTTLSLAIF
